Experimental data reported in publication PMC6699511.

Legend:
[1] = target: his-HCF[K919I, A933L], His-tagged myosin heavy chain fragment with coiled-coil stabilizing mutations (Mus musculus); experiment: SEC
[2] = target: his-HCF, His-tagged myosin heavy chain fragment K810-E934 (Mus musculus); experiment: pull-down
[3] = target: his-HCF[K919I, A933L], His-tagged myosin heavy chain fragment with coiled-coil stabilizing mutations (Mus musculus); experiment: pull-down

Molecule	stoichiometry N [1]	stoichiometry N (RLC per his-HCF) [2]	stoichiometry N (RLC per his-HCF[K919I, A933L]) [3]
his-HCF[K919I, A933L], His-tagged myosin heavy chain fragment with coiled-coil stabilizing mutations (domain or fragment)	2	–	–
myosin regulatory light chain without His-tag (RLC), P97457 1-169 (natural protein, modifications not checked) MPKCAKRRAGAEGSSNVFSMFDQTQIQEFKEAFTVIDQNRDGIIDKEDLRDTFAAMGRLNVKNEELDAMMKEASGPINFTVFLTMFGEKLKGADPEDVITGAFKVLDPEGKGTIKKQFLEELLTTQCDRFSQEEIKNMWAAFPPDVGGNVDYKNICYVITHGDAKDQE	–	1	1
